T1: Aurora-A kinase domain 122–403 C290A,C393A (UniProt O14965 122-403, C290A | C393A)
T1 construct: Aurora-A Ser/Thr kinase, kinase domain residues 122-403 with C290A and C393A; also called Aurora-A 122–403, C290A, C393A
T1 sequence (looked up): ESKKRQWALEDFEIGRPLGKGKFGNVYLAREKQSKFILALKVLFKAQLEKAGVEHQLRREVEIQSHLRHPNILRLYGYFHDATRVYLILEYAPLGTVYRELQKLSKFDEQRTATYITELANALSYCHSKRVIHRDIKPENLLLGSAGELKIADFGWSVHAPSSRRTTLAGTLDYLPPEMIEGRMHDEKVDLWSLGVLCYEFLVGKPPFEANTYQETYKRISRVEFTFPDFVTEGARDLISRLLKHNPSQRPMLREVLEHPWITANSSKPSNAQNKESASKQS


Tests used:
[1] = target: N-myc peptide 47-66 (Homo sapiens) (UniProt P04198); conditions: cited from earlier work
[2] = target: T1, Aurora-A kinase domain 122–403 …; test: NMR titration; 1H-15N HSQC of 15N-labelled N-myc constructs (150-315 uM); unlabelled Aurora-A kinase domain (305-400 uM stock) added up to [N-myc]:[Aurora-A] 1:1.4; 20 mM (K/H)3PO4 pH 6.5, 150 mM NaCl, 2 mM beta-mercaptoethanol, 1% glycerol, 5 mM MgCl2, 5 mM ADP; 25°C stated for N-myc TAD; conditions: both partners purified

Fbxw7–Skp1, sequence (Q969H0 whole entry): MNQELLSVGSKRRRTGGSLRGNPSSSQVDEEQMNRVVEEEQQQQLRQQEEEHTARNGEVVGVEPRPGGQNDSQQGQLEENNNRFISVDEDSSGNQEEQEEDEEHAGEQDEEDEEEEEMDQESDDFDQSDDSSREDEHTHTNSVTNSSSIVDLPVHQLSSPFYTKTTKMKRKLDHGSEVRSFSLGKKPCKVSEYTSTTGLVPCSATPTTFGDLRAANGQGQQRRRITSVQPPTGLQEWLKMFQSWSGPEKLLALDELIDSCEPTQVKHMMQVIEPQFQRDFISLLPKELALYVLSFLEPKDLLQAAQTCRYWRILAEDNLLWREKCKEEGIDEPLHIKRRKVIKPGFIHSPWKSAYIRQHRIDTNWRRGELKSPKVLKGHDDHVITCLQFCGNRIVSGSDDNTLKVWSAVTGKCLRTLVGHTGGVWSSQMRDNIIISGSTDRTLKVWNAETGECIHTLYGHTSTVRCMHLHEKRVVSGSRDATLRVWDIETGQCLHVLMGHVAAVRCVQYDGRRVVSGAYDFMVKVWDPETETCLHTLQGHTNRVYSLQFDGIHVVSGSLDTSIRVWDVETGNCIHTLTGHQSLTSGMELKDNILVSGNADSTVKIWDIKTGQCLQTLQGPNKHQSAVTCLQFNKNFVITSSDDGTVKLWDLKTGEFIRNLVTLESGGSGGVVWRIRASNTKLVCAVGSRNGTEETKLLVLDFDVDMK
Fbxw7–Skp1, sequence (P63208 2-163, further chain): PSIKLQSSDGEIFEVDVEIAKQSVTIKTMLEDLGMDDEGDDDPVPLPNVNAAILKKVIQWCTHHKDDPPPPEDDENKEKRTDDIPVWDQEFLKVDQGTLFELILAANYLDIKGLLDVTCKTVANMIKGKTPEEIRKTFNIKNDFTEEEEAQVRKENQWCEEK

binding result [2] | Molecule | Kd [1] [nM]
 | Fbxw7–Skp1 (from UniProt Q969H0) | < 10
binds | N-myc_(1–137) TAD (domain or fragment, whole N-myc is said to have 464 residues; 15N-labelled for the NMR titration; also called N-myc TAD; not shown: His-NusA, N-terminal, cleaved) GAMMPSCSTSTMPGMICKNPDLEFDSLQPCFYPDEDDFYFGGPDSTPPGEDIWKKFELLPTPPLSPSRGFAEHSSEPPSWVTEMLLENELWGSPAEEDAFGLGGLGGLTPNPVILQDCMWSGFSAREKLERAVSEKLQHG | 
binds | N-myc_(64–137) (domain or fragment, 15N-labelled for the NMR titration; also called C-terminal truncation of the TAD; not shown: His-NusA, N-terminal, cleaved) GAMGSRGFAEHSSEPPSWVTEMLLENELWGSPAEEDAFGLGGLGGLTPNPVILQDCMWSGFSAREKLERAVSEKLQHG | 

Source: PMC11555651 (Biochemical Journal, 2024)
